In article PMC3630055, “Bovine HEXIM1 inhibits bovine immunodeficiency virus replication through regulating BTat-mediated transactivation” (Veterinary Research, 2013):

Target: T1, His-BHEXIM1 (bovine, UniProt Q0X0C4 1-320)
T1 construct: bovine HEXIM1 (320 amino acids); pETH vector; the only BHEXIM1 cDNA described was amplified from the start to the stop codon (320 aa), so the construct is probably whole; also called purified BHEXIM1 protein; source: E. coli BL21 (DE3), purified (His Sepharose 6)
T1 sequence (looked up): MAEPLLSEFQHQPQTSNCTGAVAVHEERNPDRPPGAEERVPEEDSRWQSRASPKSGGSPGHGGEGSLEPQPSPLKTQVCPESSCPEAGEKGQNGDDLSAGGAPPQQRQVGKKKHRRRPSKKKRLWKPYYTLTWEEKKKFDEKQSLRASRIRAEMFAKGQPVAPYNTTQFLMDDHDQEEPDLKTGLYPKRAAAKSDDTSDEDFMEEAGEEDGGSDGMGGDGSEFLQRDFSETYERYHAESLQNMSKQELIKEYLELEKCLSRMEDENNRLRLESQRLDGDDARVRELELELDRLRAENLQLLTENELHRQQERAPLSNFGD
Assay: pull-down; purified GST or GST-B-cyclin T1 immobilised on glutathione Sepharose 4B beads, incubated with purified His-fusion proteins; anti-His immunoblot; in the competition 20 μg GST-B-cyclin T1, 5 μg His-BTat and 1, 5, 10, 20 μg His-BHEXIM1
Settings: both partners purified

B1: GST-B-cyclin T1 (aa 1-272) (domain or fragment, bovine, UniProt Q6T8E9 1-272, looked up)
chain: MEGERKNNNKRWYFTREQLENSPSRRFGLDPDKELSNRQQAANLLQDMGQRLNVSQLTINTAIVYMHRFYMIQSFTQFHRNSVAPAALFLAAKVEEQPKKLEHVIKVAHTCLHPQESLPDTRSEAYLQQVQDLVILESIILQTLGFELTIDHPHTHVVKCTQLVRASKDLAQTSYFMATNSLHLTTFSLQYTPPVVACVCIHLACKWSNWEIPVSTDGKHWWEYVDATVTLELLDELTHEFLQILEKTPNRLKRIWNWRAWQADRKTKADDR
notes: bovine cyclin T1, residues 1-272; pGEX6p-1 vector; source: E. coli BL21 (DE3), purified (glutathione Sepharose 4B)
binding result: binds
